From patent US20110117602A1

Assays:
[1] = target: HLA-DR on Daudi cells (human); assay: FACS analysis, PE-labeled L243 on Daudi cells
[2] = target: HLA-DR on M8166 cells (human); assay: FACS analysis, PE-labeled L243 on M8166 cells

Sequence of L243 mouse monoclonal antibody to HLA-DR α chain (VH): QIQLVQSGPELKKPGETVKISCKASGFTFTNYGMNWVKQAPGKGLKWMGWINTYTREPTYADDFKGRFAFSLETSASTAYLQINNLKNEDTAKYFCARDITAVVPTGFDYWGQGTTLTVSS
Sequence of L243 mouse monoclonal antibody to HLA-DR α chain (VL): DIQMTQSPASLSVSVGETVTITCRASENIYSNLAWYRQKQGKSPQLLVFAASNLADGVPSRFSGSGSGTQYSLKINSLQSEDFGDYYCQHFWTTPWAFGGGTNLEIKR

How did the fluorescence as a fraction of that of S1T cells [1] turn out when “L243 mouse monoclonal antibody to HLA-DR α chain” was run?
The fluorescence as a fraction of that of S1T cells was 0.1.

What about the fluorescence as a fraction of that of S1T cells [2] of the same substance?
Its fluorescence as a fraction of that of S1T cells is 0.01.
